US20230242662A1
Where a chain is given by its changes, count along the chain named.

B1: Benchmark (BM) BA-133-00-01 (antibody, V domains shown)
VH: QVQLQESGPGLVKPSETLSLTCTVSGGSVSSYDISWIRQPPGKGLEWIGVIWTDGGTNYNSAFMSRVTISVDTSKNQFSLKLSSVTAADTAVYYCARVYDGYPWFAYWGQGTLVTVSS
VL: DIQMTQSPSSLSASVGDRVTITCRASQGISNYLNWYQQKPGKAPKLLIYYTSSLHSGVPSRFSGSGSGTDFTLTISSLQPEDFATYYCQQYIKLPWTFGGGTKLEIKR
B2: BA-133-04-04 (antibody, V domains shown)
VH: EVQLVESGGGLVQPGGSLRLSCAASGGSVSSYDISWIRQSPSRGLEWLGVIWTDGGTNYNSAFMSRFTISRDDSKNTAYLQMNSLKTEDTAVYYCERVYDGYPWFAYWGQGTLVTVSS
VL: AIQLTQSPSSLSASVGDRVTITCRASQGISNYLNWYLQKPGQSPQLLIYYTSSLHEGVPDRFSGSGSGTDFTLKISRVEAEDVGVYYCQQYIKLPWTFGQGTKVEIK
B3: BAP133-2-03-03-SL (antibody, V domains shown)
VH: B2 VH
VL: B2 VL with E56S
B4: BAP133-2-02-12 (antibody, V domains shown)
VH: B2 VH
VL: AIQLTQSPSSLSASVGDRVTITCRALQGISNYLNWYQQKPGKAPKLLIYYTSSLHSGVPSRFSGSGSGTEFTLTISSLQPDDFATYYCQQYIKLPWTFGQGTKVEIK
B5: BA-133-04-01 (antibody, V domains shown)
VH: B2 VH
VL: B2 VL with G28W, E56S
B6: BA-133-04-02 (antibody, V domains shown)
VH: B2 VH
VL: B2 VL with S30A, E56S
B7: BA-133-04-03 (antibody, V domains shown)
VH: B2 VH
VL: B2 VL with H55F, E56S

Target: CD46 on Colo205 cells (human) (UniProt P15529)
Experiment: cell-based or functional assay

| Binder | IC50 of inhibition (cytotoxicity) of Colo205 cells that express CD46, pH 6.0 (test article ADC, CellTiter-Glo) [ng/mL] | IC50 of inhibition (cytotoxicity) of Colo205 cells that express CD46, pH 7.4 (test article ADC, CellTiter-Glo) [ng/mL] | Ratio (pH 7.4/6.0) of the cytotoxicity IC50 on Colo205 cells |
| --- | --- | --- | --- |
| B1 | 4.91 | 11.6 | 2.37 |
| B2 | 6.58 | 56 | 8.51 |
| B3 | 33.3 | 253 | 7.6 |

Target: human CD46 expressed on 293 cells (human) (UniProt P15529)
Experiment: cell-based or functional assay

| Binder | IC50 of in vitro cell killing of 293 cells expressing human CD46, pH 6.0 (test article ADC, CellTiter-Glo) [ng/mL] | IC50 of in vitro cell killing of 293 cells expressing human CD46, pH 7.4 (test article ADC, CellTiter-Glo) [ng/mL] | Ratio (pH 7.4/6.0) of the killing IC50 on 293 cells expressing human CD46 |
| --- | --- | --- | --- |
| B1 | 15.8 | 23.6 | 1.5 |
| B2 | 13.7 | 39.9 | 2.91 |
| B3 | 20.6 | 90.4 | 4.38 |

Target: human CD46 expressed on 293 cells (human) (UniProt P15529)
Experiment: FACS, 293 cells expressing human CD46, pH 6.0

| Binder | EC50 [µg/mL] |
| --- | --- |
| B1 | 0.147 |
| B2 | 0.241 |
| B4 | 0.676 |
| B5 | 0.324 |
| B3 | 0.336 |
| B6 | 0.32 |
| B7 | 0.147 |

Target: human CD46 expressed on 293 cells (human) (UniProt P15529)
Experiment: FACS, 293 cells expressing human CD46, pH 7.4

| Binder | EC50 [µg/mL] |
| --- | --- |
| B1 | 0.368 |
| B2 | 0.647 |
| B4 | 2.23 |
| B5 | 1.34 |
| B3 | 0.748 |
| B6 | 1.09 |
| B7 | 0.427 |

Target: CD46 on Colo205 cells (human) (UniProt P15529)
Experiment: FACS, Colo205 cells that express CD46, pH 6.0

| Binder | EC50 [µg/mL] |
| --- | --- |
| B1 | 0.201 |
| B2 | 0.246 |
| B4 | 0.704 |
| B5 | 0.36 |
| B3 | 0.341 |
| B6 | 0.371 |
| B7 | 0.151 |

Target: CD46 on Colo205 cells (human) (UniProt P15529)
Experiment: FACS, Colo205 cells that express CD46, pH 7.4

| Binder | EC50 [µg/mL] |
| --- | --- |
| B1 | 0.513 |
| B2 | 0.96 |
| B4 | 3.63 |
| B5 | 1.66 |
| B3 | 1.48 |
| B6 | 1.57 |
| B7 | 1.47 |

Target: recombinant human CD46 antigen (human) (UniProt P15529)
Experiment: pH range ELISA (pH 5.5 to 7.4), coated human CD46

| Binder | pH inflection point [pH] |
| --- | --- |
| B2 | 6.7 |
| B4 | 6.58 |
| B5 | 6.61 |
| B3 | 6.8 |
| B6 | 6.64 |

Target: recombinant human CD46 antigen (human) (UniProt P15529)
Experiment: ELISA, coated human CD46; EC50 at pH 7.4 over EC50 at pH 6.0

| Binder | ratio (ph 7.4/pH 6.0) |
| --- | --- |
| B1 | 1.31 |
| B2 | 3.63 |
| B4 | 7.02 |
| B5 | 3.46 |
| B3 | 3.23 |
| B6 | 3.8 |
| B7 | 2.23 |

Target: human CD46 expressed on 293 cells (human) (UniProt P15529)
Experiment: FACS, 293 cells expressing human CD46; EC50 at pH 7.4 over EC50 at pH 6.0

| Binder | Ratio (pH 7.4/6.0) |
| --- | --- |
| B1 | 2.5 |
| B2 | 2.7 |
| B4 | 3.3 |
| B5 | 4.1 |
| B3 | 2.2 |
| B6 | 3.4 |
| B7 | 2.9 |

Target: CD46 on Colo205 cells (human) (UniProt P15529)
Experiment: FACS, Colo205 cells that express CD46; EC50 at pH 7.4 over EC50 at pH 6.0

| Binder | Ratio (pH 7.4/6.0) |
| --- | --- |
| B1 | 2.6 |
| B2 | 3.9 |
| B4 | 5.2 |
| B5 | 4.6 |
| B3 | 4.4 |
| B6 | 4.2 |
| B7 | 9.7 |
